Results on 29 sequences are retold here after the supplement of paper PMC9170038.

In this data set the test system is MS2 coat protein. Briefly: apparent KD of MS2 coat protein; designed switch direction (-1 OFF switch, 1 ON switch): -1; higher = weaker reporter binding. The method, boiled down:
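Designed RNA switches with common flanks were transcribed on Illumina chips by stalled E. coli RNA polymerase and titrated with SNAP-549-labelled MS2 coat protein, from 0.7 or 1.5 nM doubling to 3 µM, in Tris-HCl pH 7.5 buffer with KCl, MgCl2, BSA, DTT, tRNA and Tween-20. Steps lasted 0.8–1.5 h (lowest) to 10–20 min (highest). Titrations ran without input, with 200 uM small-molecule ligand, or with an oligonucleotide input. Normalised cluster fluorescence was curve-fitted, and apparent KD is the per-design median over clusters.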

Where [1] appears, read: Eterna round: R95, input ligand: FMN 200 uM.
Where [2] appears, read: Eterna round: R95, input ligand: microRNA oligo, concentration not stated.
[3] abbreviates: Eterna round: R95, input ligand: none.
[4] abbreviates: input ligand: microRNA oligo, concentration not stated.

Take “AAGAAACAUGAGGAUCACCCAUGUGAGGAUAUGACCAAGAAAAGAAAAGAAAGAAGAUUCAGAAGGCACAAAGG [salish99-ex1_r3_060] (puzzle: Exclusion 1)”: the “apparent KD of MS2 coat protein” value is, setting by setting: under setting [1], 49.7 nM; under setting [2], 29.9 nM; under setting [3], 40.7 nM.

Consider “AAGAAACAUGAGGAUCACCCAUGUGAGGAUAUGAGCAAGAAAAGAAAAGAAAGAAGAAUCAGAAGGCACAAAGG [salish99-ex1_r3_050] (Eterna round: R96, puzzle: Exclusion 1)”, for which the “apparent KD of MS2 coat protein” value by setting is: (input ligand: FMN 200 uM) 68.5 nM; under setting [4], 31.7 nM; (input ligand: none) 37.4 nM.

For the sequence “AAGAAACAUGAGGAUCACCCAUGUGAGGAUAUGAGCAAGAAAAGAAAAGAAAGAAGAAUCAGAAGGCACAAAGG [salish99-ex1_r3_050] (puzzle: Exclusion 1)”, the “apparent KD of MS2 coat protein” value by setting is: under setting [1], 6990 nM; under setting [2], 1.1 nM; under setting [3], 49.3 nM.

As for “AAGAAACAUGAGGAUCACCCAUGUGAGGAUAUGAGCACGCCGGUGACGGUGAUAAGAAUCAGAAGGCACAAAGG [JL-ex1-4.34 salish99 mod] (Eterna round: R97, puzzle: Exclusion 1)”, the “apparent KD of MS2 coat protein” value (input ligand: FMN 200 uM) was 93 nM and the “apparent KD of MS2 coat protein” value (input ligand: none) amounted to 77.8 nM.

As to “AAGAAACAUGAGGAUCACCCAUGUGAGGAUAUGAGUAAGAAAAGAAAAGAAAGAAGACUCAGAAGGCACAAAGG [salish99-ex1_r3_074] (puzzle: Exclusion 1)”, the “apparent KD of MS2 coat protein” value is, setting by setting: under setting [1], 135 nM; under setting [2], 110 nM; under setting [3], 86.8 nM.

As to “AAGAAACAUGAGGAUCACCCAUGUGAGGAUAUGUAAAAUAAAAGAAAAGAAAUAAUAAACAGAAGGCACAAAGG [Mat - Mod of Hog D15] (puzzle: Exclusion 1)”, the “apparent KD of MS2 coat protein” value was 52.1 nM under setting [1], 30.9 nM under setting [2] and 41.4 nM under setting [3].

On to “AAGAAACAUGAGGAUCACCCAUGUGAGGAUAUGUAAAAUAAAAGAAAAUAAAGAAGAAACAGAAGGCACAAAGG [Mat - Mod of Hog D22] (puzzle: Exclusion 1)”, for which the “apparent KD of MS2 coat protein” value turned out to be 40.3 nM under setting [1], 36.1 nM under setting [2] and 33.7 nM under setting [3].

“AAGAAAGAGUUAGGAUAUACAUGAGGAUCACCCAUGUGGUGGUAAAUCCGCUGGGUCGGUUCGAUGUAGAAGGAACAACCGCCG [Inisinlaon] (Eterna round: R96, puzzle: Exclusion NG 2)”: the “apparent KD of MS2 coat protein” value reads like this: (input ligand: FMN 200 uM) 281 nM; under setting [4], 18.7 nM; (input ligand: none) 68.3 nM.

Take “AAGAACGUAGGAUAUACAUGAGGAUCACCCAUGUGAGGAAGGAGUAGGAAGUGUGGAAGUAGAAGGACGGAGAG [JR_Exclu3_Sub076] (puzzle: Exclusion 3)”: the “apparent KD of MS2 coat protein” value runs as follows: under setting [1], 31.5 nM; under setting [2], 35.4 nM; under setting [3], 33.8 nM.

For “AAGAAGAAACAAGCUUUUUGCACGUCAUAUAGUGACGCAACAUGAGGAUCACCCAUGUAUAGGGUGGGAAAGGAUAG [JR_SV3TOV2_Sub047] (Eterna round: R96, puzzle: Sensor v3, turn-off variant 2)”, the “apparent KD of MS2 coat protein” value reads like this: (input ligand: FMN 200 uM) 669 nM; under setting [4], 352 nM; (input ligand: none) 826 nM.

For the sequence “AAGAAGAAACAAGCUUUUUGCACGUCAUAUAGUGACGCAACAUGAGGAUCACCCAUGUAUAGGGUGGGAAAGGAUAG [JR_SV3TOV2_Sub047] (puzzle: Sensor v3, turn-off variant 2)”, the “apparent KD of MS2 coat protein” value reads like this: under setting [1], 338 nM; under setting [2], 70 nM; under setting [3], 423 nM.

In the case of “AAGAAGAUCAGAGGAUAUGGAGCUGAAACGGCGCUAGAAGGCUGUCUAGUGUAACAUGAGGAUCACCCAUGUAGGGACCUCUAA [EX ng 1 4.3] (Eterna round: R96, puzzle: Exclusion NG 1)”, the “apparent KD of MS2 coat protein” value is 874 nM (input ligand: FMN 200 uM), 795 nM under setting [4] and 884 nM (input ligand: none).

For the sequence “AAGAAGCGAGGAUAUACAUGAGGAUCACCCAUGUACCUCAUAAAGAAAAGAAAAGAAAGUAGAAGGCGCAAAAG [Default title] (puzzle: Exclusion 3)”, the “apparent KD of MS2 coat protein” value under setting [1] amounted to 24.2 nM, the “apparent KD of MS2 coat protein” value under setting [2] was determined as 23.1 nM and the “apparent KD of MS2 coat protein” value under setting [3] turned out to be 18.4 nM.

Regarding “AAGAAGCUAGGAUAUCACACUGACAACAUGAGGAUCACCCAUGUAGGUGAUCGGUUAGCUUGAGAAGGAGCGGAGG [Laedanes] (puzzle: Exclusion 5)”, the “apparent KD of MS2 coat protein” value reads like this: under setting [1], 83.5 nM; under setting [2], 46.9 nM; under setting [3], 78.3 nM.

Consider “AAGAAGUCAGGAUAUACAUGAGGAUCACCCAUGUAAAAGAAAGAAAAGGGAAAGAAAAGUAGAAGGGACAAGAA [Menkheperre Thutmose III] (Eterna round: R96, puzzle: Exclusion 3)”, for which the “apparent KD of MS2 coat protein” value was 22.9 nM (input ligand: FMN 200 uM), 21.8 nM under setting [4] and 27.2 nM (input ligand: none).

Consider “AAGAAUCGCAAUACGAAUAAGCAAUACGAACAAUAGCAAACAUGAGGAUCACCCAUGUCAAGGGUGACAACGCUCUA [JR_Sensorv2_tov2_Sub107] (Eterna round: R96, puzzle: Sensor v2, turn-off variant 2)”, for which the “apparent KD of MS2 coat protein” value reads like this: (input ligand: FMN 200 uM) 173 nM; under setting [4], 61.2 nM; (input ligand: none) 862 nM.

As to “AAGAAUUAGUCAGGAUAUAGCGGCCAAGAACUACUAGAAGGGAUUAGACAUGAGGAUCACCCAUGUGAUCUUUUUGUAGGGACG [Eternabot solution 15] (Eterna round: R96, puzzle: Exclusion NG 1)”, the “apparent KD of MS2 coat protein” value runs as follows: (input ligand: FMN 200 uM) 32.6 nM; under setting [4], 25.7 nM; (input ligand: none) 41.2 nM.

As for “AAGACAAAUGUAGGAUAUGCGUGGCGAAGCUAUGCAGAAGGACAUGAGGAUCACCCAUGUCUAAGCGUCUGCGUACAGAUGCUA [JL eng1 1.35 mod 8] (Eterna round: R96, puzzle: Exclusion NG 1)”, the “apparent KD of MS2 coat protein” value came out at 19.9 nM (input ligand: FMN 200 uM), 10.7 nM under setting [4] and 18.4 nM (input ligand: none).

For the sequence “AAGAGCAAGGCAGGAUAUCACAUGAGGAUCACCCAUGUAUCCGAAAGAACAACGCCCGCGUUGUGUGAGAAGGGUCUAUGCAGG [Eternabot solution 10] (Eterna round: R96, puzzle: Exclusion NG 2)”, the “apparent KD of MS2 coat protein” value was 370 nM (input ligand: FMN 200 uM), 61.6 nM under setting [4] and 75.8 nM (input ligand: none).

As for “AAGAGUGCAGGAUAUACUUGGUAGGGCGGGUGGAUGGUUUGACAUGAGGAUCACCCAUGUAGAAGGGCAGAGAG [JR_Exclu2_Sub054] (puzzle: Exclusion 2)”, under setting [2], the “apparent KD of MS2 coat protein” value is 31.4 nM.

“AAGAGUGCAGGAUAUACUUGUUAGGACGGUUGGAUGAAUGGACAUGAGGAUCACCCAUGUAGAAGGGCAGAGAG [JR_Exclu2_Sub051] (puzzle: Exclusion 2)”: the “apparent KD of MS2 coat protein” value under setting [1] was 33.9 nM, the “apparent KD of MS2 coat protein” value under setting [2] came to 30.2 nM and the “apparent KD of MS2 coat protein” value under setting [3] was 41.3 nM.

Take “AAGAUGUAAGGAUAUGCUGCUCGUCACAAAAGUGAUGAGUAGCAGAAGGUACAUGAGGAUCACCCAUGUAGAGA [Opal 38] (Eterna round: R96, puzzle: Exclusion 4)”: the “apparent KD of MS2 coat protein” value runs as follows: (input ligand: FMN 200 uM) 60.6 nM; under setting [4], 18.2 nM; (input ligand: none) 22.7 nM.

On to “AAGAUGUCAGGAUAUUAGUAGUAAAUGAAUAAAAUUAUUACUGAGAAGGGACAUGAGGAUCACCCAUGUGUCUU [Mat - Exclusion 4 - Eli Mod - D11] (Eterna round: R97, puzzle: Exclusion 4)”, for which the “apparent KD of MS2 coat protein” value worked out at 80.2 nM (input ligand: FMN 200 uM) and 19.8 nM (input ligand: none).

For the sequence “AAGAUGUGAGGAUAUCUAUUGAAGCGCGGUUCCCGGCAGAGAGAGAAGGCACAUGAGGAUCACCCAUGUAUAGC [Eternabot (L1) Solution 53] (Eterna round: R97, puzzle: Exclusion 4)”, the “apparent KD of MS2 coat protein” value amounted to 56.5 nM (input ligand: FMN 200 uM) and 20.6 nM (input ligand: none).

Consider “AAGAUGUUAGGAUAUCGAAGGUUGUGGCAGGCGGGAAUUUGCGAGAAGGAACAUGAGGAUCACCCAUGUGAAAU [JR_Exclu4_Sub043] (puzzle: Exclusion 4)”, for which the “apparent KD of MS2 coat protein” value under setting [2] stood at 19.7 nM.

Consider “AAGAUUAGGAAAGGAUAUAAAGAGAAACAAAGUGCACAUGAGGAUCACCCAUGUACUGACACGCGUUAGAAGGUUCCAGUCCUC [Eternabot solution 40] (Eterna round: R96, puzzle: Exclusion NG 2)”, for which the “apparent KD of MS2 coat protein” value (input ligand: FMN 200 uM) was 18.1 nM, the “apparent KD of MS2 coat protein” value under setting [4] was found to be 15.5 nM and the “apparent KD of MS2 coat protein” value (input ligand: none) came to 25.4 nM.

Consider “AAGCACCAUGUGAGGAUAUGCCACGGAACCGAUGGGCAGAAGGCACAUGAGGAUCACCCAUGUGACCGGUGGAU [Eternabot (Original) Solution 48] (Eterna round: R97, puzzle: Brourd's mod of Exclusion 4)”, for which the “apparent KD of MS2 coat protein” value (input ligand: FMN 200 uM) is 236 nM and the “apparent KD of MS2 coat protein” value (input ligand: none) stood at 44.6 nM.

For “AAGCCUCUUGUCAGGAUAUCUGUCGGUCCUCCAAGAGAGAAGGGACAUGAGGAUCACCCAUGUAAGCCCAGGGA [Qubere] (puzzle: Brourd's mod of Exclusion 4)”, the “apparent KD of MS2 coat protein” value under setting [2] turned out to be 13.5 nM.

“AAGCGCGUAGGAUAUACAUGAGGAUCACCCAUGUGAGGAAGGAGUAGGAAGUGUGGAAGUAGAAGGACGGAGAG [JR_Exclu3_Sub077] (puzzle: Exclusion 3)”: the “apparent KD of MS2 coat protein” value is, setting by setting: under setting [1], 34.4 nM; under setting [2], 31.1 nM; under setting [3], 37.4 nM.
